In patent US20260284216 (published 2026):
Like-named read-outs stand apart in the source and are kept apart here.

T1: Trop2 (human, UniProt P09758)
T1 chain: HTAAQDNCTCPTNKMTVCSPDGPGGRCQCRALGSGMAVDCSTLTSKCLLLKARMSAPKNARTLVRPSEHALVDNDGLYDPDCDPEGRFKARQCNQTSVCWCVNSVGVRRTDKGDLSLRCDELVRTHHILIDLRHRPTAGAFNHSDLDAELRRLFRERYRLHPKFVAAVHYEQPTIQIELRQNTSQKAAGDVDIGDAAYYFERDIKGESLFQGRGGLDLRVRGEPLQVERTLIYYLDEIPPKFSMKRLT


Legend:
Experiment in all cases: BLI
TNF-alpha [1] = biological target: TNF-alpha (human)
Trop2 = biological target: T1, Trop2
FAP [2] = biological target: T2, FAP (human, UniProt Q12884)
TNF-alpha [3] = biological target: TNF-alpha (human); remark: listed apart in the source
FAP [4] = biological target: T2, FAP; remark: listed apart in the source
TNF-alpha [5] = biological target: TNF-alpha (human); remark: listed apart in the source

Chain of TNF-alpha (human) (chain, as listed by the source): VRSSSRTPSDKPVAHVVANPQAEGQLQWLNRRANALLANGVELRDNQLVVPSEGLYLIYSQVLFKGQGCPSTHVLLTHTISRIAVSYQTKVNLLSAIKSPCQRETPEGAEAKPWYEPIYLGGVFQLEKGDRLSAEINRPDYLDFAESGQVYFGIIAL
T2 sequence (Q12884 26-760): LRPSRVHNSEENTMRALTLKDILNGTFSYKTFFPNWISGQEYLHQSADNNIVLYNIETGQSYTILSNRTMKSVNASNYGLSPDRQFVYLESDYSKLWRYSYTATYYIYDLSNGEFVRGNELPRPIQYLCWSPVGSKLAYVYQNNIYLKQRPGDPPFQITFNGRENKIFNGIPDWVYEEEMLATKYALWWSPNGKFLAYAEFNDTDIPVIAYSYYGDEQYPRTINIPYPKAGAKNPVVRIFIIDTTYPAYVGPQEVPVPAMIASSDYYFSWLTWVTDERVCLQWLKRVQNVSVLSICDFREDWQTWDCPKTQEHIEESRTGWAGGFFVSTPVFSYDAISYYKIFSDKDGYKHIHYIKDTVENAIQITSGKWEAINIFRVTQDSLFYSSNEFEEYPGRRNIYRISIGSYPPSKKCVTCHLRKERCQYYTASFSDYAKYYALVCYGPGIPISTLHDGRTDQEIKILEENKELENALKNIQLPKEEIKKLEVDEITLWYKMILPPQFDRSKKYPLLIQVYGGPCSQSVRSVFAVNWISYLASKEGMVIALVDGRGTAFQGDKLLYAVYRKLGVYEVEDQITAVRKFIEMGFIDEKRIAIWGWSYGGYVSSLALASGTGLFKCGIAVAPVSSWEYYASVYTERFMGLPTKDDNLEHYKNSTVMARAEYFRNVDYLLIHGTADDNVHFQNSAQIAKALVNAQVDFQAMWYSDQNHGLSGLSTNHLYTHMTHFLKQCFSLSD

Kd (TNF-alpha [1])	Kd (Trop2)	Kd (FAP [2])	Kd (TNF-alpha [3])	Kd (FAP [4])	Kd (TNF-alpha [5])	Binder
16.5 nM	101 nM	–	–	–	–	TN01 (antibody, V domains shown) VH: EVQLVESGGGLVQPGGSLRLSCAASGYVFTDYGMNWVRQAPGKGLEWMGWINTAYGSPDYADSVKGRFTFSLDTSKSTAYLQMNSLRAEDTAVYYCARGYRYYAMDYWGQGTLVTVSS VL: DIQMTQSPSSLSASVGDRVTITCKASQNVGTNVAWYQQKPGKAPKALIYSASFLYSGVPYRFSGSGSGTDFTLTISSLQPEDFATYYCQQVGDYPLTFGQGTKVEIKR
–	–	2.19 nM	25.7 nM	13.1 nM	20.5 nM	FN15 (antibody, V domains shown) VH: EVQLVESGGGLVQPGGSLRLSCAASGYVFTDYGMNWVRQAPGKGLEWMGWINTDNGTPYYADSVKGRFTFSLDTSKSTAYLQMNSLRAEDTAVYYCARGYRSYAMDYWGQGTLVTVSS VL: DIQMTQSPSSLSASVGDRVTITCKASQYTYNAVAWYQQKPGKAPKALIYSASFLYSGVPYRFSGSGSGTDFTLTISSLQPEDFATYYCQQSYGYLVTFGQGTKVEIKR
